Results from PMC12096693 (Microbial Cell Factories, 2025).

Tests used:
CL2 = conditions: pH 7, 2 mM PLP
purified protein = substrate: NCCCC[C@H](N)C(=O)O; experiment: purified protein; conditions: pH 7, 2 mM PLP

Row | Molecule | Km (CL2) [mM] | Km (purified protein) [mM]
1 | NCCCC[C@H](N)C(=O)O [L-lysine] | 22.2 ± 5.73 | –
2 | LdcC (Escherichia coli K-12) (protein) MNIIAIMGPHGVFYKDEPIKELESALVAQGFQIIWPQNSVDLLKFIEHNPRICGVIFDWDEYSLDLCSDINQLNEYLPLYAFINTHSTMDVSVQDMRMALWFFEYALGQAEDIAIRMRQYTDEYLDNITPPFTKALFTYVKERKYTFCTPGHMGGTAYQKSPVGCLFYDFFGGNTLKADVSISVTELGSLLDHTGPHLEAEEYIARTFGAEQSYIVTNGTSTSNKIVGMYAAPSGSTLLIDRNCHKSLAHLLMMNDVVPVWLKPTRNALGILGGIPRREFTRDSIEEKVAATTQAQWPVHAVITNSTYDGLLYNTDWIKQTLDVPSIHFDSAWVPYTHFHPIYQGKSGMSGERVAGKVIFETQSTHKMLAALSQASLIHIKGEYDEEAFNEAFMMHTTTSPSYPIVASVETAAAMLRGNPGKRLINRSVERALHFRKEVQRLREESDGWFFDIWQPPQVDEAECWPVAPGEQWHGFNDADADHMFLDPVKVTILTPGMDEQGNMSEEGIPAALVAKFLDERGIVVEKTGPYNLLFLFSIGIDKTKAMGLLRGLTEFKRSYDLNLRIKNMLPDLYAEDPDFYRNMRIQDLAQGIHKLIRKHDLPGLMLRAFDTLPEMIMTPHQAWQRQIKGEVETIALEQLVGRVSANMILPYPPGVPLLMPGEMLTKESRTVLDFLLMLCSVGQHYPGFETDIHGAKQDEDGVYRVRVLKMAG | – | 18.46 ± 0.89
3 | CadA (Escherichia coli K-12) (protein) MNVIAILNHMGVYFKEEPIRELHRALERLNFQIVYPNDRDDLLKLIENNARLCGVIFDWDKYNLELCEEISKMNENLPLYAFANTYSTLDVSLNDLRLQISFFEYALGAAEDIANKIKQTTDEYINTILPPLTKALFKYVREGKYTFCTPGHMGGTAFQKSPVGSLFYDFFGPNTMKSDISISVSELGSLLDHSGPHKEAEQYIARVFNADRSYMVTNGTSTANKIVGMYSAPAGSTILIDRNCHKSLTHLMMMSDVTPIYFRPTRNAYGILGGIPQSEFQHATIAKRVKETPNATWPVHAVITNSTYDGLLYNTDFIKKTLDVKSIHFDSAWVPYTNFSPIYEGKCGMSGGRVEGKVIYETQSTHKLLAAFSQASMIHVKGDVNEETFNEAYMMHTTTSPHYGIVASTETAAAMMKGNAGKRLINGSIERAIKFRKEIKRLRTESDGWFFDVWQPDHIDTTECWPLRSDSTWHGFKNIDNEHMYLDPIKVTLLTPGMEKDGTMSDFGIPASIVAKYLDEHGIVVEKTGPYNLLFLFSIGIDKTKALSLLRALTDFKRAFDLNLRVKNMLPSLYREDPEFYENMRIQELAQNIHKLIVHHNLPDLMYRAFEVLPTMVMTPYAAFQKELHGMTEEVYLDEMVGRINANMILPYPPGVPLVMPGEMITEESRPVLEFLQMLCEIGAHYPGFETDIHGAYRQADGRYTVKVLKEESKK | – | 29.23 ± 9.56
